B1: RNA polymerase III subunit C34 (natural protein, Saccharomyces cerevisiae, UniProt P32910 1-317, looked up)
chain: MSGMIENGLQLSDNAKTLHSQMMSKGIGALFTQQELQKQMGIGSLTDLMSIVQELLDKNLIKLVKQNDELKFQGVLESEAQKKATMSAEEALVYSYIEASGREGIWSKTIKARTNLHQHVVLKCLKSLESQRYVKSVKSVKFPTRKIYMLYSLQPSVDITGGPWFTDGELDIEFINSLLTIVWRFISENTFPNGFKNFENGPKKNVFYAPNVKNYSTTQEILEFITAAQVANVELTPSNIRSLCEVLVYDDKLEKVTHDCYRVTLESILQMNQGEGEPEAGNKALEDEEEFSIFNYFKMFPASKHDKEVVYFDEWTI

Experiments:
[1] = molecular target: T1, RNA polymerase III subunit C128 (Saccharomyces cerevisiae, UniProt P22276 1-1149); assay: cryo-EM structure
T1 sequence (looked up): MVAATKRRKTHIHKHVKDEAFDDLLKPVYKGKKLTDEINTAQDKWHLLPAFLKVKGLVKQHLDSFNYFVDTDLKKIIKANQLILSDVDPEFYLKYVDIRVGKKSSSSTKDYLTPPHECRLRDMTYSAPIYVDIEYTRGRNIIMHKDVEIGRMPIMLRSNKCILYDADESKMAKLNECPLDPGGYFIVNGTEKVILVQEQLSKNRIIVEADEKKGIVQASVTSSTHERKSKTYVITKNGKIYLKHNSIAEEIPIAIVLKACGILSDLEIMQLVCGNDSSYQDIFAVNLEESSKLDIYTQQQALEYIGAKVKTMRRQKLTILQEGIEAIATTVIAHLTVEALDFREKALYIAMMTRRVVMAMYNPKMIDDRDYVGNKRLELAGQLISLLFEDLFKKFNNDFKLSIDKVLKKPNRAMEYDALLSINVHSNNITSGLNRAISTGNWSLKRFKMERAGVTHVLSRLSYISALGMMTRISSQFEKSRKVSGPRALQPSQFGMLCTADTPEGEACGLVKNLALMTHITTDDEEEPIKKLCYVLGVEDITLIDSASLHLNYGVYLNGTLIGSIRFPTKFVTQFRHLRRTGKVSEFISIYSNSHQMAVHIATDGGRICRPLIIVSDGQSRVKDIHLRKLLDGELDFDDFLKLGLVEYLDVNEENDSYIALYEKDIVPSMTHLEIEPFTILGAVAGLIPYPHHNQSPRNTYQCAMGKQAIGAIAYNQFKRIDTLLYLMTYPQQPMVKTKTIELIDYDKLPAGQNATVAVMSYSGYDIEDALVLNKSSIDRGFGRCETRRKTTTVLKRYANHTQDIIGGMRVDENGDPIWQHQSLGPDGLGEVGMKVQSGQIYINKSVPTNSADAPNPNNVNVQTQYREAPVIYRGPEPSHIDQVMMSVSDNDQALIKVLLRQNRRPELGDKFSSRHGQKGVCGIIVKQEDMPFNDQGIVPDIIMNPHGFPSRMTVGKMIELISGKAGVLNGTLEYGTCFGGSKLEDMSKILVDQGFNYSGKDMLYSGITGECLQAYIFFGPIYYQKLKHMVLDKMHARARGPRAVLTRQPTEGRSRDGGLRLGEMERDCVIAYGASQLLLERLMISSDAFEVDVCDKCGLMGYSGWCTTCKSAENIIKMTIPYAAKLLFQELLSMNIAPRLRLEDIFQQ

[2] = molecular target: B1; assay: cryo-EM structure

B1
binding result [1]: binds

B2: RNA polymerase III subunit C37 (natural protein, Saccharomyces cerevisiae, UniProt P36121 1-282, looked up)
chain: MSIDNKLFVTEEDEEDRTQDRADVEDESNDIDMIADENGTNSAIANEQEEKSEEVKAEDDTGEEEEDDPVIEEFPLKISGEEESLHVFQYANRPRLVGRKPAEHPFISAARYKPKSHLWEIDIPLDEQAFYNKDKAESEWNGVNVQTLKGVGVENNGQYAAFVKDMQVYLVPIERVAQLKPFFKYIDDANVTRKQEDARRNPNPSSQRAQVVTMSVKSVNDPSQNRLTGSLLAHKVADEEANIELTWAEGTFEQFKDTIVKEAEDKTLVALEKQEDYIDNLV
binding result [2]: binds
